The values that follow come from paper PMC7608592, “Allomorphy as a mechanism of post-translational control of enzyme activity” (Nature Communications, 2020).

Data set [1] relates to O=P(O)(O)OC[C@H]1O[C@@H](OP(=O)(O)O)[C@H](O)[C@@H](O)[C@@H]1O. Nature of the data set: purified protein. To be noted: Mg2+ active site.
Data set [2] relates to O=P(O)(O)O[C@@H]1O[C@H](CO)[C@@H](O)[C@H](O)[C@H]1O. Put plainly: purified protein. The following applies: Mg2+ active site.
The target in data set [3] is T1, β-phosphoglucomutase (βPGM) (Lactococcus lactis, UniProt P71447).
T1 construct: gene pgmB
Put plainly: X-ray crystal structure at […] Å; NMR titration (1H15N-TROSY). In kind it is binding.

The target of data set [4] is T1, β-phosphoglucomutase (βPGM). Put plainly: real-time NMR (A:F16BP complex observed); phosphorylating agent in coupled assay. In kind it is binding.
In data set [5] the target is T2, β-phosphoglucomutase (βPGM) (Lactococcus lactis, UniProt P71447, P146A).
T2 construct: gene pgmB
Put plainly: NMR: phosphorylation of the purified enzyme (B^P formed) and turnover of F16BP. In kind it is biochemical.

Take “β-phosphoglucomutase (βPGM) (Lactococcus lactis subsp. lactis Il1403; P146A)”: the Michaelis constant (Km) in data set [1] worked out at 175 ± 3 µM; in data set [2] it was 157 ± 3 µM.

For the compound `O=C(O)CC(O)(CC(=O)O)C(=O)O` [citrate], the “X-ray crystal structure at 2.1 Å; NMR titration (1H15N-TROSY)” value in data set [3] was “Citrate is coordinated in the active site by residues T16, H20, V47–R49 and A115–K117 and mimics substrate binding”. For “β-phosphoglucomutase (βPGM) (Lactococcus lactis subsp. lactis Il1403)”, the figures for the Km in data set [1] and in data set [2] were 8.5 ± 0.3 µM and 91 ± 4 µM, respectively. For `O=P(O)(O)OC[C@H]1OC(O)(COP(=O)(O)O)[C@@H](O)[C@@H]1O` (mixture of isomers) [F16BP, fructose 1,6-bisphosphate], in data set [4], the “real-time NMR (A:F16BP complex observed); phosphorylating agent in coupled assay” value is reported as “A minor population of the A:F16BP complex is also present”. The “NMR: phosphorylation of the purified enzyme (B^P formed) and turnover of F16BP” value in data set [5] is “On addition of F16BP to βPGMP146A, the two dominant species observed are conformer B and B^P”.

As usually defined, the Km is the concentration of substrate that gives half-maximal velocity.
